The values that follow are results of earlier work, collected in paper PMC4657025.

Like-named read-outs stand apart in the source and are kept apart here.

The target in series [1] is Asp96 (UniProt position 109, …). The experiment in a line: not stated in the text (title of ref 19 indicates FTIR spectroscopy). The settings on record: dark state (unphotolysed BR).
Series [2] has as its target Asp85 (UniProt position 98, …).
Series [3] concerns the target Asp85 (UniProt position 98, …). Particulars: 150 mM NaCl.

B1: Bacteriorhodopsin (BR) (Halobacterium salinarum) (protein)
chain: QAQITGRPEWIWLALGTALMGLGTLYFLVKGMGVSDPDAKKFYAITTLVPAIAFTMYLSMLLGYGLTMVPFGGEQNPIYWARYADWLFTTPLLLLDLALLVDADQGTILALVGADGIMIGTGLVGALTKVYSYRFVWWAISTAAMLYILYVLFFGFTSKAESMRPEVASTFKVLRNVTVVLWSAYPVVWLIGSEGAGIVPLNIETLLFMVLDVSAKVGFGLILLRSRAIFGEAEAPEPSAGDGAAATSD
Broadly, the pKa is the pH at which an ionisable group is half protonated. Regarding B1, the pKa is more than 11 in series [1], 2.7 in series [2] and 2.5 in series [2] (150 mM NaCl).

B2: Bacteriorhodopsin R82Q mutant (Halobacterium salinarum; R82Q) (protein)
chain: QAQITGRPEWIWLALGTALMGLGTLYFLVKGMGVSDPDAKKFYAITTLVPAIAFTMYLSMLLGYGLTMVPFGGEQNPIYWAQYADWLFTTPLLLLDLALLVDADQGTILALVGADGIMIGTGLVGALTKVYSYRFVWWAISTAAMLYILYVLFFGFTSKAESMRPEVASTFKVLRNVTVVLWSAYPVVWLIGSEGAGIVPLNIETLLFMVLDVSAKVGFGLILLRSRAIFGEAEAPEPSAGDGAAATSD
B2: in series [3], the pKa is on record as 7.2.
